Drawing on publication PMC3850785, this text covers Km, kcat and kcat/Km for 6 proteins.

Holding throughout (test): purified protein
Conditions in all cases: 5 mM GSH, 0.10 M Tris-HCl pH 7.7, 37 °C, 1 h

Substrate in series [1]: C1O[C@@H]1[C@@H]1CO1
Substrate in series [2]: C1O[C@@H]1[C@H]1CO1
Substrate in series [3]: C1O[C@H]1[C@H]1CO1

B1: human GST A1-1 (Homo sapiens) (protein)
chain: AEKPKLHYFNARGRMESTRWLLAAAGVEFEEKFIKSAEDLDKLRNDGYLMFQQVPMVEIDGMKLVQTRAILNYIASKYNLYGKDIKERALIDMYIEGIADLGEMILLLPVCPPEEKDAKLALIKEKIKNRYFPAFEKVLKSHGQDYLVGNKLSRADIHLVELLYYVEELDSSLISSFPLLKALKTRISNLPTVKKFLQPGSPRKPPMDEKSLEEARKIFRF
As to B1, the results for the Km in series [1], in series [2] and in series [3] were 300 ± 50 µM, 540 ± 30 µM and 320 ± 10 µM, respectively. For the same protein, the kcat (usually the maximal rate divided by the concentration of active sites) came out at 0.0228 s⁻¹ in series [1], 0.0342 s⁻¹ in series [2] and 0.0218 s⁻¹ in series [3]. In addition, the values for the kcat/Km in series [1], in series [2] and in series [3] were 78.3 M⁻¹ s⁻¹, 63.3 M⁻¹ s⁻¹ and 68.3 M⁻¹ s⁻¹, respectively.

B2: human GST P1-1 (Homo sapiens) (protein)
chain: PPYTVVYFPVRGRCAALRMLLADQGQSWKEEVVTVETWQEGSLKASCLYGQLPKFQDGDLTLYQSNTILRHLGRTLGLYGKDQQEAALVDMVNDGVEDLRCKYISLIYTNYEAGKDDYVKALPGQLKPFETLLSQNQGGKTFIVGDQISFADYNLLDLLLIHEVLAPGCLDAFPLLSAYVGRLSARPKLKAFLASPEYVNLPINGNGKQ
As to B2, the Km (in general, the substrate concentration at which the rate is half of its maximum) in series [1] was 740 ± 330 µM; in series [2] it was 590 ± 150 µM; in series [3], 910 ± 10 µM. Also, the kcat in series [1] was 0.044 s⁻¹; in series [2], 0.0265 s⁻¹; in series [3], 0.0442 s⁻¹. For the same protein, the kcat/Km (in general, the second-order rate constant that governs catalysis at low substrate concentration) in series [1] turned out to be 65 M⁻¹ s⁻¹; in series [2], 46.7 M⁻¹ s⁻¹; in series [3], 48.3 M⁻¹ s⁻¹.

B3: human GST T1-1 (Homo sapiens) (protein)
chain: GLELYLDLLSQPCRAVYIFAKKNDIPFELRIVDLIKGQHLSDAFAQVNPLKKVPALKDGDFTLTESVAILLYLTRKYKVPDYWYPQDLQARARVDEYLAWQHTTLRRSCLRALWHKVMFPVFLGEPVSPQTLAATLAELDVTLQLLEDKFLQNKAFLTGPHISLADLVAITELMHPVGAGCQVFEGRPKLATWRQRVEAAVGEDLFQEAHEVILKAKDFPPADPTIKQKLMPWVLAMIR
On to B3, for which, in series [1], the Michaelis-Menten constant (Km) was found to be 790 ± 30 µM, the kcat is 0.0618 s⁻¹ and the kcat/Km stood at 78.3 M⁻¹ s⁻¹. Further, in series [2], the Km was found to be 370 ± 10 µM, the kcat worked out at 0.0403 s⁻¹ and the kcat/Km is 108 M⁻¹ s⁻¹. In addition, in series [3], the Km was 930 ± 10 µM, the kcat amounted to 0.0617 s⁻¹ and the kcat/Km was found to be 66.7 M⁻¹ s⁻¹.

B4: human GST M1-1 (Homo sapiens) (protein)
chain: PMILGYWDIRGLAHAIRLLLEYTDSSYEEKKYTMGDAPDYDRSQWLNEKFKLGLDFPNLPYLIDGAHKITQSNAILCYIARKHNLCGETEEEKIRVDILENQTMDNHMQLGMICYNPEFEKLKPKYLEELPEKLKLYSEFLGKRPWFAGNKITFVDFLVYDVLDLHRIFEPKCLDAFPNLKDFISRFEGLEKISAYMKSSRFLPRPVFSKMAVWGNK
With B4, the Km in series [1] turned out to be 730 ± 60 µM. For the same protein, in series [2], the Michaelis-Menten constant (Km) amounted to 920 ± 330 µM, the kcat is 0.0497 s⁻¹ and the kcat/Km worked out at 56.7 M⁻¹ s⁻¹. In series [3], the Km was found to be 810 ± 50 µM, the kcat was 0.074 s⁻¹ and the kcat/Km amounted to 91.7 M⁻¹ s⁻¹.

B5: rat GST 5-5 (Rattus norvegicus) (protein)
chain: VLELYLDLLSQPCRAIYIFAKKNNIPFQMHTVELRKGEHLSDAFAQVNPMKKVPAMKDGGFTLCESVAILLYLAHKYKVPDHWYPQDLQARARVDEYLAWQHTTLRRSCLRTLWHKVMFPVFLGEQIRPEMLAATLADLDVNVQVLEDQFLQDKDFLVGPHISLADVVAITELMHPVGGGCPVFEGRPRLAAWYRRVEAAVGKDLFLEAHEVILKVRDCPPADPVIKQKLMPRVLTMIQ
For the protein B5, in series [1], the Km came out at 770 ± 20 µM, the kcat was determined as 0.0638 s⁻¹ and the kcat/Km stood at 83.3 M⁻¹ s⁻¹. Besides, in series [2], the Michaelis-Menten constant (Km) amounted to 830 ± 150 µM, the kcat worked out at 0.0308 s⁻¹ and the kcat/Km came to 38.3 M⁻¹ s⁻¹. Further, in series [3], the Michaelis constant (Km) was found to be 800 ± 60 µM, the kcat is 0.0573 s⁻¹ and the kcat/Km came to 71.7 M⁻¹ s⁻¹.

B6: human GST A3-3 (Homo sapiens) (protein)
chain: AGKPKLHYFNGRGRMEPIRWLLAAAGVEFEEKFIGSAEDLGKLRNDGSLMFQQVPMVEIDGMKLVQTRAILNYIASKYNLYGKDIKERALIDMYTEGMADLNEMILLLPLCRPEEKDAKIALIKEKTKSRYFPAFEKVLQSHGQDYLVGNKLSRADISLVELLYYVEELDSSLISNFPLLKALKTRISNLPTVKKFLQPGSPRKPPADAKALEEARKIFRF
Turning to B6, the Km in series [1] was 480 ± 330 µM; in series [2], 750 ± 120 µM; in series [3], 510 ± 80 µM. Also, the kcat in series [1] was 0.0253 s⁻¹; in series [2], 0.0302 s⁻¹; in series [3], 0.028 s⁻¹. The kcat/Km in series [1] is 66.7 M⁻¹ s⁻¹; in series [2], 40 M⁻¹ s⁻¹; in series [3], 55 M⁻¹ s⁻¹.
